# Assay results from patent US20200115430A1 (I2O THERAPEUTICS, published 2020).
# Starred links: 1 amine or outer side, 2 acyl side, 3 side chain; linkers in the order of their positions; H or OH if unused. Positions of bridges follow the written chain, without caps; N, C: chain ends. Groups on a side chain read outwards from the residue. No end group written: not given here. *: point of attachment. C20 diacid = O=C(O)CCCCCCCCCCCCCCCCCCC(=O)*; C18 diacid = O=C(O)CCCCCCCCCCCCCCCCC(=O)*; C17 diacid = O=C(O)CCCCCCCCCCCCCCCC(=O)*; C16 diacid = O=C(O)CCCCCCCCCCCCCCC(=O)*; γGlu = O=C(O)[C@H](CCC(=O)[*:2])N[*:1]
# B1: Compound A5 (peptide)
# peptide: SCNTSTCATQRLANEKHKSSNNFGPILPPTKVGSETY
# modifications: L-Lys 16 acylated: K*(γGlu-dpeg-dpeg-(γGlu)4-CO(CH2)14CH3); disulfide bridge Cys2-Cys7; C-terminal amide
# B2: Compound A88 (peptide)
# peptide: SCNTSTCATQRLANEK([γGlu-C16 diacid])HKSSNNFGPILPPTKVGSETY-NH2
# modifications: disulfide 2-7; N-terminus assumed
# SMILES: CC[C@H](C)[C@H](NC(=O)[C@@H]1CCCN1C(=O)CNC(=O)[C@H](Cc1ccccc1)NC(=O)[C@H](CC(N)=O)NC(=O)[C@H](CC(N)=O)NC(=O)[C@H](CO)NC(=O)[C@H](CO)NC(=O)[C@H](CCCCN)NC(=O)[C@H](Cc1c[nH]cn1)NC(=O)[C@H](CCCCNC(=O)CC[C@H](NC(=O)CCCCCCCCCCCCCCC(=O)O)C(=O)O)NC(=O)[C@H](CCC(=O)O)NC(=O)[C@H](CC(N)=O)NC(=O)[C@H](C)NC(=O)[C@H](CC(C)C)NC(=O)[C@H](CCCNC(=N)N)NC(=O)[C@H](CCC(N)=O)NC(=O)[C@@H](NC(=O)[C@H](C)NC(=O)[C@@H]1CSSC[C@H](NC(=O)[C@@H](N)CO)C(=O)N[C@@H](CC(N)=O)C(=O)N[C@@H]([C@@H](C)O)C(=O)N[C@@H](CO)C(=O)N[C@@H]([C@@H](C)O)C(=O)N1)[C@@H](C)O)C(=O)N[C@@H](CC(C)C)C(=O)N1CCC[C@H]1C(=O)N1CCC[C@H]1C(=O)N[C@H](C(=O)N[C@@H](CCCCN)C(=O)N[C@H](C(=O)NCC(=O)N[C@@H](CO)C(=O)N[C@@H](CCC(=O)O)C(=O)N[C@H](C(=O)N[C@@H](Cc1ccc(O)cc1)C(N)=O)[C@@H](C)O)C(C)C)[C@@H](C)O
# B3: Compound A80 (peptide)
# peptide: SCNTSTCATQRLANEK([γGlu-C17 diacid])HKSSNNFGPILPPTKVGSETY-NH2
# modifications: disulfide 2-7; N-terminus assumed
# SMILES: CC[C@H](C)[C@H](NC(=O)[C@@H]1CCCN1C(=O)CNC(=O)[C@H](Cc1ccccc1)NC(=O)[C@H](CC(N)=O)NC(=O)[C@H](CC(N)=O)NC(=O)[C@H](CO)NC(=O)[C@H](CO)NC(=O)[C@H](CCCCN)NC(=O)[C@H](Cc1c[nH]cn1)NC(=O)[C@H](CCCCNC(=O)CC[C@H](NC(=O)CCCCCCCCCCCCCCCC(=O)O)C(=O)O)NC(=O)[C@H](CCC(=O)O)NC(=O)[C@H](CC(N)=O)NC(=O)[C@H](C)NC(=O)[C@H](CC(C)C)NC(=O)[C@H](CCCNC(=N)N)NC(=O)[C@H](CCC(N)=O)NC(=O)[C@@H](NC(=O)[C@H](C)NC(=O)[C@@H]1CSSC[C@H](NC(=O)[C@@H](N)CO)C(=O)N[C@@H](CC(N)=O)C(=O)N[C@@H]([C@@H](C)O)C(=O)N[C@@H](CO)C(=O)N[C@@H]([C@@H](C)O)C(=O)N1)[C@@H](C)O)C(=O)N[C@@H](CC(C)C)C(=O)N1CCC[C@H]1C(=O)N1CCC[C@H]1C(=O)N[C@H](C(=O)N[C@@H](CCCCN)C(=O)N[C@H](C(=O)NCC(=O)N[C@@H](CO)C(=O)N[C@@H](CCC(=O)O)C(=O)N[C@H](C(=O)N[C@@H](Cc1ccc(O)cc1)C(N)=O)[C@@H](C)O)C(C)C)[C@@H](C)O
# B4: Compound A79 (peptide)
# peptide: SCNTSTCATQRLANEK(C17 diacid)HKSSNNFGPILPPTKVGSETY-NH2
# modifications: disulfide 2-7; N-terminus assumed
# SMILES: CC[C@H](C)[C@H](NC(=O)[C@@H]1CCCN1C(=O)CNC(=O)[C@H](Cc1ccccc1)NC(=O)[C@H](CC(N)=O)NC(=O)[C@H](CC(N)=O)NC(=O)[C@H](CO)NC(=O)[C@H](CO)NC(=O)[C@H](CCCCN)NC(=O)[C@H](Cc1c[nH]cn1)NC(=O)[C@H](CCCCNC(=O)CCCCCCCCCCCCCCCC(=O)O)NC(=O)[C@H](CCC(=O)O)NC(=O)[C@H](CC(N)=O)NC(=O)[C@H](C)NC(=O)[C@H](CC(C)C)NC(=O)[C@H](CCCNC(=N)N)NC(=O)[C@H](CCC(N)=O)NC(=O)[C@@H](NC(=O)[C@H](C)NC(=O)[C@@H]1CSSC[C@H](NC(=O)[C@@H](N)CO)C(=O)N[C@@H](CC(N)=O)C(=O)N[C@@H]([C@@H](C)O)C(=O)N[C@@H](CO)C(=O)N[C@@H]([C@@H](C)O)C(=O)N1)[C@@H](C)O)C(=O)N[C@@H](CC(C)C)C(=O)N1CCC[C@H]1C(=O)N1CCC[C@H]1C(=O)N[C@H](C(=O)N[C@@H](CCCCN)C(=O)N[C@H](C(=O)NCC(=O)N[C@@H](CO)C(=O)N[C@@H](CCC(=O)O)C(=O)N[C@H](C(=O)N[C@@H](Cc1ccc(O)cc1)C(N)=O)[C@@H](C)O)C(C)C)[C@@H](C)O
# B5: Compound A75 (peptide)
# peptide: SCNTSTCATQRLANEK(C20 diacid)HKSSNNFGPILPPTKVGSETY-NH2
# modifications: disulfide 2-7; N-terminus assumed
# SMILES: CC[C@H](C)[C@H](NC(=O)[C@@H]1CCCN1C(=O)CNC(=O)[C@H](Cc1ccccc1)NC(=O)[C@H](CC(N)=O)NC(=O)[C@H](CC(N)=O)NC(=O)[C@H](CO)NC(=O)[C@H](CO)NC(=O)[C@H](CCCCN)NC(=O)[C@H](Cc1c[nH]cn1)NC(=O)[C@H](CCCCNC(=O)CCCCCCCCCCCCCCCCCCC(=O)O)NC(=O)[C@H](CCC(=O)O)NC(=O)[C@H](CC(N)=O)NC(=O)[C@H](C)NC(=O)[C@H](CC(C)C)NC(=O)[C@H](CCCNC(=N)N)NC(=O)[C@H](CCC(N)=O)NC(=O)[C@@H](NC(=O)[C@H](C)NC(=O)[C@@H]1CSSC[C@H](NC(=O)[C@@H](N)CO)C(=O)N[C@@H](CC(N)=O)C(=O)N[C@@H]([C@@H](C)O)C(=O)N[C@@H](CO)C(=O)N[C@@H]([C@@H](C)O)C(=O)N1)[C@@H](C)O)C(=O)N[C@@H](CC(C)C)C(=O)N1CCC[C@H]1C(=O)N1CCC[C@H]1C(=O)N[C@H](C(=O)N[C@@H](CCCCN)C(=O)N[C@H](C(=O)NCC(=O)N[C@@H](CO)C(=O)N[C@@H](CCC(=O)O)C(=O)N[C@H](C(=O)N[C@@H](Cc1ccc(O)cc1)C(N)=O)[C@@H](C)O)C(C)C)[C@@H](C)O
# B6: Compound A65 (peptide)
# peptide: K([γGlu-γGlu-C18 diacid])CNTSTCATQRLANELHKSSNNFGPILPPTKVGSETY-NH2
# modifications: disulfide 2-7; N-terminus assumed
# SMILES: CC[C@H](C)[C@H](NC(=O)[C@@H]1CCCN1C(=O)CNC(=O)[C@H](Cc1ccccc1)NC(=O)[C@H](CC(N)=O)NC(=O)[C@H](CC(N)=O)NC(=O)[C@H](CO)NC(=O)[C@H](CO)NC(=O)[C@H](CCCCN)NC(=O)[C@H](Cc1c[nH]cn1)NC(=O)[C@H](CC(C)C)NC(=O)[C@H](CCC(=O)O)NC(=O)[C@H](CC(N)=O)NC(=O)[C@H](C)NC(=O)[C@H](CC(C)C)NC(=O)[C@H](CCCNC(=N)N)NC(=O)[C@H](CCC(N)=O)NC(=O)[C@@H](NC(=O)[C@H](C)NC(=O)[C@@H]1CSSC[C@H](NC(=O)[C@@H](N)CCCCNC(=O)CC[C@H](NC(=O)CC[C@H](NC(=O)CCCCCCCCCCCCCCCCC(=O)O)C(=O)O)C(=O)O)C(=O)N[C@@H](CC(N)=O)C(=O)N[C@@H]([C@@H](C)O)C(=O)N[C@@H](CO)C(=O)N[C@@H]([C@@H](C)O)C(=O)N1)[C@@H](C)O)C(=O)N[C@@H](CC(C)C)C(=O)N1CCC[C@H]1C(=O)N1CCC[C@H]1C(=O)N[C@H](C(=O)N[C@@H](CCCCN)C(=O)N[C@H](C(=O)NCC(=O)N[C@@H](CO)C(=O)N[C@@H](CCC(=O)O)C(=O)N[C@H](C(=O)N[C@@H](Cc1ccc(O)cc1)C(N)=O)[C@@H](C)O)C(C)C)[C@@H](C)O
# Molecular target: T1, human amylin 3 receptor (human, UniProt P30988 25-474; O60896 24-148)
# T1 sequence (looked up) 1: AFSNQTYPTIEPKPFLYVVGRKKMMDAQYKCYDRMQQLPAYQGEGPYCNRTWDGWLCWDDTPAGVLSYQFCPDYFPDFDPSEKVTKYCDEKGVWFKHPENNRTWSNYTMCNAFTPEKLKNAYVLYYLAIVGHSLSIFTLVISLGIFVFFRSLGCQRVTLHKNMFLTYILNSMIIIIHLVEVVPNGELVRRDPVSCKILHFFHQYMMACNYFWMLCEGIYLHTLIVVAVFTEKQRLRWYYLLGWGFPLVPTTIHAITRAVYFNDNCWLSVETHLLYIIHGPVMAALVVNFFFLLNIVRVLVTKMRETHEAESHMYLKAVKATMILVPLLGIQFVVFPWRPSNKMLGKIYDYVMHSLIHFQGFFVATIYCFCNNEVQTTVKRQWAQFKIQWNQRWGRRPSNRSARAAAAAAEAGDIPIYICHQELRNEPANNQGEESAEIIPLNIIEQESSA
# T1 sequence (looked up) 2: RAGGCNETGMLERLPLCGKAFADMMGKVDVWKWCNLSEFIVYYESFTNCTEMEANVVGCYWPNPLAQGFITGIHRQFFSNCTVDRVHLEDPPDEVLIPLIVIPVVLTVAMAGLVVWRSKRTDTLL
# Assay: cell-based or functional assay
Binder,"pEC50 (cAMP accumulation), 0% HSA [pEC50]","pEC50 (cAMP accumulation), 0.1% HSA [pEC50]","pEC50 (cAMP accumulation), 4% HSA [pEC50]"
B1,12.3,10.8,9.2
B2,10.8,10.1,8.7
B3,11.3,10.4,8.7
B4,11.5,10.4,9.4
B5,11.9,10.5,8.9
B6,11.5,10.1,8.7

# Molecular target: T2, human calcitonin receptor (human, UniProt P30988 25-474)
# T2 sequence (looked up): T1 sequence (looked up) 1
# Assay: cell-based or functional assay
Binder,"pEC50 (cAMP accumulation), 0% HSA [pEC50]","pEC50 (cAMP accumulation), 0.1% HSA [pEC50]","pEC50 (cAMP accumulation), 4% HSA [pEC50]"
B1,10.8,9.5,7.8
B2,9.8,9,7.8
B3,10.2,9.2,7.7
B4,10.3,9.9,9.5
B5,10.8,10,7.7
B6,10.5,9,7.9
